Assay results reported in patent publication US20070098719A1 (GITR, published 2007).

Columns and labels:
[1] = target: T1, human GITR (hGITR), glucocorticoid-induced TNF receptor (UniProt Q9Y5U5 26-241); experiment: SPR
T1 chain: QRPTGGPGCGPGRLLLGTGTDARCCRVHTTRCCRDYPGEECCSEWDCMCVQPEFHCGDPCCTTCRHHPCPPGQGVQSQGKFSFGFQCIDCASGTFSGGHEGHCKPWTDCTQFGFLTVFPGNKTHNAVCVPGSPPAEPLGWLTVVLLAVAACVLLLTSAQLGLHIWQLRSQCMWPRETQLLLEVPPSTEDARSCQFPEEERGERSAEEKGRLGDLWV

[2] = target: T2, human GITR (hGITR), glucocorticoid-induced TNF receptor (human, UniProt Q9Y5U5 26-241); experiment: FACS, L-M (mouse fibroblast) cells transfected with the GITR gene, 50 ul hybridoma supernatant
T2 construct: also called TNFRSF18
T2 sequence: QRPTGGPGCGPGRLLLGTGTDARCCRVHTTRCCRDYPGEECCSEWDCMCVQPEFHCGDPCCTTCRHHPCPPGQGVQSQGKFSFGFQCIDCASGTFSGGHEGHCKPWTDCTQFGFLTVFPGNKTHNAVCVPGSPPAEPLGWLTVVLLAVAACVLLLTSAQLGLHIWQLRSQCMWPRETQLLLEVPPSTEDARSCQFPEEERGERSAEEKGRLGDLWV
Description: FIG. 3 depicts a FACS analysis of L-M (mouse fibroblast) cells transfected with the GITR gene that were stained with 50 μl of supernatant fluid from GITR-expressing hybridoma cells. The GITR binding molecule stained GITR-transfected cells but not the untransfected L-M cells.

B1: 6C8 antibody (antibody, V domains shown)
VH: QVTLKESGPGILKPSQTLSLTCSFSGFSLSTSGMGVGWIRQPSGKGLEWLAHIWWDDDKYYNPSLKSQLTISKDTSRNQVFLKITSVDTADAATYYCARTRRYFPFAYWGQGTLVTVSS
VL: DIVMTQSQKFMSTSVGDRVSVTCKASQNVGTNVAWYQQKPGQSPKALIYSASYRYSGVPDRFTGSGSGTDFTLTINNVHSEDLAEYFCQQYNTDPLTFGAGTKLEIK
notes: also called anti-GITR
Kd [1]: 1.1 nM | binding result [2]: binds
